Measured values as given in patent publication US20210087522A1 (UNIVERSITY OF FLORIDA RESEARCH FOUNDATION, published 2021).

How the values were obtained:
[1] = molecular target: T1, APPT, Sfp-like phosphopantetheinyl transferase (PPTase) from Anabaena sp. PCC7120 (Anabaena sp. PCC7120, UniProt P37695 1-237); test: read from Km, Michaelis-Menten kinetics of phosphopantetheinylation (HPLC)
T1 construct: also called Anabaena PPTase
T1 sequence: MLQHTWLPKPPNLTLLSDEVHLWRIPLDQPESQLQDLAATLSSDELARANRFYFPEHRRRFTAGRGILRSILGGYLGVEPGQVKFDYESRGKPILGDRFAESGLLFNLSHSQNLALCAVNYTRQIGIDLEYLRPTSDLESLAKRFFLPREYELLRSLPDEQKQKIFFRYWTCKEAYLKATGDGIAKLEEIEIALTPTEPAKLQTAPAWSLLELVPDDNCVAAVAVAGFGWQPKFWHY

[2] = molecular target: T2, SPPT, Sfp-like phosphopantetheinyl transferase (PPTase) from Synechocystis sp. PCC6803 (Synechocystis sp. PCC6803, UniProt Q55185 1-246); test: as above
T2 construct: Recombinant protein with a His-tag from pET28b, made in E. coli
T2 sequence: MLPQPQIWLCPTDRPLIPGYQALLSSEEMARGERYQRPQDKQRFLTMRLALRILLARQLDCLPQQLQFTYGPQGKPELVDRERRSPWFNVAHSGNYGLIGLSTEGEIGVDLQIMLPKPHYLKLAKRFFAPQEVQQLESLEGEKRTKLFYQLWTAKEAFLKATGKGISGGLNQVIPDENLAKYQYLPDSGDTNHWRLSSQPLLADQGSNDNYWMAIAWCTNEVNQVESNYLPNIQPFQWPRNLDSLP

B1: SFACP, ACP of the FAS from Synechocystis (other)
chain: MDQEIFEKVKKIVVEQLEVDPDKVTPDATFAEDLGADSLDTVELVMALEEEFDIEIPDEVAETIDTVGKAVEHIESK
binding result [1]: binds
binding result [2]: binds
